Article PMC10382551, “Affinity-matured homotypic interactions induce spectrum of PfCSP structures that influence protection from malaria infection” (Nature Communications, 2023)
Ends that are not written are not given here.

T1: NPNA8 peptide (Plasmodium falciparum (isolate 3D7)., not fully specified)
T1 construct: source: synthetic peptide (InnoPep Inc)
T1 chain: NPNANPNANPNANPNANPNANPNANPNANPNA

T2: NPNA4 peptide (Plasmodium falciparum (isolate 3D7)., not fully specified)
T2 construct: source: synthetic peptide (InnoPep Inc)
T2 chain: NPNANPNANPNANPNA

B1: 239 Fab (Fab, V domains shown)
VH: QVQLVESGGGVVQPGRSLRLSCAASRLTFRNFGMHWVRQTPGKGLEWVAVIWHDGSNKFYADSVEGRFTISRDNSKNTLYLQMNSLRDEDTAIYYCAKDWGGASDRVFDYWGRGTLVIVSS
VL: DIQMTQSPSTLSASVGDRVTITCRASQSVSTSLAWYQQKPGKAPNLLIYQASTLYRGVPSRFSGSGSGTEFTLTIGSLQPDDFATYYCQHYNSYSRITFGQGTRLEIK
notes: also called mAb 239; source: ExpiCHO cells, purified (mAb Select PrismA or Capture Select, SEC)
B2: 239R Fab (Fab, V domains shown)
VH: QVQLVESGGGVVQPGRSLRLSCAASRLTFSSYGMHWVRQTPGKGLEWVAVIWHDGSNKFYADSVKGRFTISRDNSKNTLYLQMNSLRDEDTAIYYCAKDWGGASDRVFDYWGRGTLVIVSS
VL: DIQMTQSPSTLSASVGDRVTITCRASQSVSTSLAWYQQKPGKAPNLLIYQASTLYTGVPSRFSGSGSGTEFTLTIGSLQPDDFATYYCQHYNSYSRITFGQGTRLEIK
notes: also called germline-reverted 239; source: ExpiCHO cells, purified (mAb Select PrismA or Capture Select, SEC)
B3: 227 Fab (Fab, V domains shown)
VH: QVQLVQSGGGVVQPGRSLRLSCVTSGFTFPAFGMHWVRQAPGKGLEWVAVIWYDGSKKYYADSVRGRFTISRDNSRNTLYLQMHSLRAEDTAVYYCARVKNYESSGYSQCLDYWGQGVLVTVAS
VL: QSVLTQPPSVSGAPGQRVTISCTGSSSNIGAGYDVHWYQQLPGTAPKLLIYGNGNRPSGVPDRFSGSKSGTSVSLAITGLQAEDEADYYCQSYDSSLSAFVFGTGTKVTVL
notes: also called mAb 227; source: ExpiCHO cells, purified (mAb Select PrismA or Capture Select, SEC)
B4: 337 Fab (Fab, V domains shown)
VH: QVQLVESGGGVVQPGRSLRLSCAASGFSFSTYGMHWVRQAPGKGLEWVALIWHDGSKKFYSESVRGRFTISRDNSMDTLYLQMSSLRAEDTAVYYCARDGADYFDSTGGAFDIWGQGTMVIVSS
VL: EIVMTQSPATLSVSPGERATLSCRASQSVSSNLAWYQQKPGQAPRLLIYGASTRATGIPARFSGSGSGTEFTLTISSLQSEDFATYYCQQYKTWWTFGQGTKVEIK
notes: also called mAb 337; source: ExpiCHO cells, purified (mAb Select PrismA or Capture Select, SEC)
B5: 334 Fab (Fab, V domains shown)
VH: QVQLVESGGGVVQPGRSLTLSCAASGFTFSNYGMHWVRQTPGKGLAWVAIIWYDGSKTYYEDSVKGRFTISRDNSKNTLYLQMNSLRVDDTAVYYCARVRHSSSRHGSAFDLWGQGTLVTVSS
VL: VIQMTQSPSTLSASVGDRVTITCRASQSVSTWLAWYQQKPGQGPKLLIYEASSLESGVPSRFSGSGSGTEFTLTISSLQPDDFATYYCQQYNSYSFWTFGQGTKVEIK
notes: also called mAb 334; source: ExpiCHO cells, purified (mAb Select PrismA or Capture Select, SEC)
B6: 311 Fab (Fab, V domains shown)
VH: QVQLVESGGGVVPPGRSLRLSCATSGFTFSNYGMHWVRQAPGKGLEWVAIIWYDGSRNFYAASVEGRFTISRDNSKNTLYLQMNSLRVEDTAVYYCARAAYYDTSGYGDYWGQGTLVTVSS
VL: QSVLTQPPSVSGAPGQTVTISCTGGSSNIGAGYDVHWYQQLPGTAPKLLIYGNINRPSGVPDRFSGSKSGTSASLAITGLQAEDEADYYCQSYDRRLSGSWVFGGGTKLTVL
notes: also called mAb 311; source: ExpiCHO cells, purified (mAb Select PrismA or Capture Select, SEC)
B7: 311R Fab (Fab, V domains shown)
VH: QVQLVESGGGVVPPGRSLRLSCATSGFTFSSYGMHWVRQAPGKGLEWVAIIWYDGSNKFYAASVKGRFTISRDNSKNTLYLQMNSLRVEDTAVYYCARAAYYDTSGYGDYWGQGTLVTVSS
VL: QSVLTQPPSVSGAPGQTVTISCTGGSSNIGAGYDVHWYQQLPGTAPKLLIYGNINRPSGVPDRFSGSKSGTSASLAITGLQAEDEADYYCQSYDSSLSGSWVFGGGTKLTVL
notes: also called germline-reverted 311; source: ExpiCHO cells, purified (mAb Select PrismA or Capture Select, SEC)

Assays:
[1] = molecular target: T1, NPNA8 peptide; experiment: BLI; settings: both partners purified
[2] = molecular target: T2, NPNA4 peptide; experiment: BLI; settings: both partners purified

Binder	Kd [1] [nM]	koff [1] [s⁻¹]	kon [1] [M⁻¹ s⁻¹]	Kd [2] [nM]	koff [2] [s⁻¹]	kon [2] [M⁻¹ s⁻¹]
B1	7.2	0.00056	83000	44.7	0.0063	110000
B2	205	0.022	120000	165	0.033	410000
B3	80.3	0.0035	40000	37.5	0.0058	130000
B4	39.4	0.0035	66000	36.9	0.007	130000
B5	22.4	0.0013	52000	49.9	0.0021	53000
B6	6.1	0.00025	66000	212	0.0041	27000
B7	211	0.0051	71000	67.4	0.0088	71000
